This assay has as its target T1, deleted in colorectal cancer (DCC) (human, UniProt P43146 26-1447).
T1 construct: Endogenous DCC of MCF-7 cells, detected by Western blot in the anti-HA immunoprecipitate; also called DCC/Unc-40
The assay can be described thus: co-immunoprecipitation (anti-HA) from transfected MCF-7 cells, Western blot with anti-DCC AF5. How it is done:
MCF-7 breast cancer cells were transfected by Lipofection with 5 μg of pcDNA3.1 containing HA-tagged mPR-wt, tagged mutant S56A, S180A, S56A/S180A, or tagged mutant S56A/C128S/[…]. After transfection of 2×10⁶ cells they were cultured in RPMI-Medium with 5% FCS. For IP the cells were trypsinized, counted and cell pellets were snap frozen and stored at −80° C.
Beads were separated by centrifugation and stored at −80° C. […] Incubation was performed for 16 h at 4° C. in a rotating tube. Then, beads were separated by centrifugation and washed twice with ice cold lysis buffer.
For PAGE gel-loading buffer/mercatoethanol was added to beads and the final supernatant, heated to 95° C. for 5 min and loaded on a 10% polyacrylamide gel. After separation of the proteins, western blot was performed onto nitrocellulose membrane. Transfer was controlled by Ponceau-red staining visualizing protein bands. After destaining the membranes were blocked for 16 h at 4° C. with 5% milkpowder/0.05% Tween. The next day membranes were incubated with mouse monoclonal anti-DCC antibody (1:20) (Biozol/Abcam) for 2 h at RT followed by biotinylated anti-mouse IgG antibody (Vecta Stain). For detection, membranes were incubated with streptavidin/HRP complex (DAKO) for 2 h at RT followed by enhanced chemiluminescence (ECL) treatment and measurement of chemiluminescence using a Lumiimager (Roche). As a loading control, membranes were incubated with rabbit polyclonal Actin I-19 antibody (Santa Cruz).

The source of these data is patent publication US20090061461A1 (published 2009).

T1 sequence (P43146 26-1447 limits assumed): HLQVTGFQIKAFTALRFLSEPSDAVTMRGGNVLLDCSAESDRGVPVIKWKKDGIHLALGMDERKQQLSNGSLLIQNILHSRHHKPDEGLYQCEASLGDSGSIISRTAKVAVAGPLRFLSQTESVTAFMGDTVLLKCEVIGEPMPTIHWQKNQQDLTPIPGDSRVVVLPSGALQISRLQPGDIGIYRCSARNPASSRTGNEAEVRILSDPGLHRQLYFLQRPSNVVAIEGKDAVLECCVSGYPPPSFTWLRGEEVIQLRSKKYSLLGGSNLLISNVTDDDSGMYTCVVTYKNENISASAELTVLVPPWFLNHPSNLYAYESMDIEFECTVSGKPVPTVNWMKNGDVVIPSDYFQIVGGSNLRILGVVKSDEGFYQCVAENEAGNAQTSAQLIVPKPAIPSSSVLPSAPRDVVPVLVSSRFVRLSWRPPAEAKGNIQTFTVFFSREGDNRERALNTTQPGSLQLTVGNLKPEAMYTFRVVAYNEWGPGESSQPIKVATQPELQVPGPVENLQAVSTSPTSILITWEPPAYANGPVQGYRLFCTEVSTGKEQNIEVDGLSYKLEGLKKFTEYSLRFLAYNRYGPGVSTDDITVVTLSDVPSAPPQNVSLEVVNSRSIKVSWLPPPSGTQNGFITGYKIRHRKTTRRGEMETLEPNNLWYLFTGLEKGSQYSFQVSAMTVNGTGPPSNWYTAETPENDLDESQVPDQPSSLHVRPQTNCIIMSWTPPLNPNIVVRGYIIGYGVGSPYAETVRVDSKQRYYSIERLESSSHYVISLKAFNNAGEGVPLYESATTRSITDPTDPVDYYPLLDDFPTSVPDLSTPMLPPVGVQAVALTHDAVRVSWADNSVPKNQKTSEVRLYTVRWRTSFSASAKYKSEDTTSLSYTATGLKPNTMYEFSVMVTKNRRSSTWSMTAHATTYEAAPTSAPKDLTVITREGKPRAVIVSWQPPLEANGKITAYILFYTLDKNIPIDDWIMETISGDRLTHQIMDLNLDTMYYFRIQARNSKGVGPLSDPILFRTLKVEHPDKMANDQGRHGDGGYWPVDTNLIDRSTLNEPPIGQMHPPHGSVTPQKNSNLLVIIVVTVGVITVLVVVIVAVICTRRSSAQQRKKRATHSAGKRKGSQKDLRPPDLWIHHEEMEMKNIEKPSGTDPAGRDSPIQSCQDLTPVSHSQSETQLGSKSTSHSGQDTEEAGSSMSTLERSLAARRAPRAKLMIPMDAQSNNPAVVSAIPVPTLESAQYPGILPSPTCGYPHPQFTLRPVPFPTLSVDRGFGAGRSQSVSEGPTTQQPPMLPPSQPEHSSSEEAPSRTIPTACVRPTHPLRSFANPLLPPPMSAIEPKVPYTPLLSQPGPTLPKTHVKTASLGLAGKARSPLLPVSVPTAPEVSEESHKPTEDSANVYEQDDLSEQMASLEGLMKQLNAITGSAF

B1: HA-tagged mPR mutant S56A/S180A (receptor)
chain: not shown
notes: also called mPR-3HA S56A/S180A; not shown: C-terminal 3xHA tag
Regarding B1, the binding result was “no binding”.

B2: HA-tagged mPR mutant S56A/C128S/S180A (receptor)
chain: not shown
notes: not shown: C-terminal 3xHA tag
As to B2, the binding result is reported as “no binding”.

B3: HA-tagged mPR mutant S180A (receptor)
chain: not shown
notes: also called mPR-3HA S180A; not shown: C-terminal 3xHA tag
For the molecule B3, the binding result is reported as “no binding”.

B4: HA-tagged mPR mutant S56A (receptor)
chain: not shown
notes: also called mPR-3HA S56A; not shown: C-terminal 3xHA tag
Take B4: the binding result is recorded as “no binding”.
